# Laboratory results as given in article PMC12439145, “Aptamer-based drug delivery for targeted therapy of imatinib-resistant gastrointestinal stromal tumor”.
# B1: KIT-w (ssDNA)
# DNA: GAGGCATACCAGCTTATTCAAGGGGCCGGGGCAAGGGGGGGGTACCGTGGTAGGACATAGTAAGTGCAATCTGCGAA
# Experiments:
# [1] = biological target: T1, KIT (recombinant, YEASEN 93764ES80) (UniProt P10721 26-524); assay: flow cytometry; KIT coated on aldehyde/sulfate latex beads; SPR at 25 C, His-KIT on CM5 chip, 50 mM NaOH regeneration; flow cytometry with 250 nM Cy5-aptamer in binding buffer with 1 mg/ml BSA and 1 mM yeast tRNA; salt and pH not given in material; conditions: protein: commercial; tags: His-tag; label: Cy5 in flow cytometry; predicted stem-loop
# [2] = biological target: T1, KIT (recombinant, YEASEN 93764ES80); assay: SPR; KIT immobilized on CM5 chip; SPR at 25 C, His-KIT on CM5 chip, 50 mM NaOH regeneration; flow cytometry with 250 nM Cy5-aptamer in binding buffer with 1 mg/ml BSA and 1 mM yeast tRNA; salt and pH not given in material; conditions: protein: commercial; tags: His-tag; label: Cy5 in flow cytometry; predicted stem-loop
# T1 sequence (P10721 26-524): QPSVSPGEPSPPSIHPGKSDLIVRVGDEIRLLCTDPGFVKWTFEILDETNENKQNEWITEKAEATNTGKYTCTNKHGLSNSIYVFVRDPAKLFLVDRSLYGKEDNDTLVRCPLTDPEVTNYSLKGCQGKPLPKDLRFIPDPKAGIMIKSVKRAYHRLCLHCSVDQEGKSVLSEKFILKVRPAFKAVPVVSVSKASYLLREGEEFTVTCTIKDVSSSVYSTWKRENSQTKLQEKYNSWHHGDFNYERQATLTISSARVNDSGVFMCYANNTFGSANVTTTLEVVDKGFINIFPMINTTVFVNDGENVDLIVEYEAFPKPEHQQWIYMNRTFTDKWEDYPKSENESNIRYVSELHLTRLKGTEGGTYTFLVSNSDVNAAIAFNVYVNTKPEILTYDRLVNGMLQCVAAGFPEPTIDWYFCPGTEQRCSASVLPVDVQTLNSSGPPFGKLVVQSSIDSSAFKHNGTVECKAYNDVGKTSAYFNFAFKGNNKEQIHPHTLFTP
Binder,Kd [1],Kd [2]
ATTCAAGGGGCCGGGGCAAGGGGGGGGTACCGTGGTAGGACATAGT (ssDNA) [KIT-d],80.2 nM,71.1 nM
B1,106 nM,84 nM
